“And” between values parts separate entries of the source, which are not always exact repeats. Identical values can stand only once. Like-named read-outs stand apart in the source and are kept apart here.
Experiments:
[1] = HPLC peptide recovery before and after freeze-drying
Method: The composition prepared as described in Example 4, containing 14 neoantigens and the A16L T-helper peptide, was subjected to HPLC analysis to evaluate the peptide stability before and after freeze-drying.
Experimental Conditions: • IPQC Solutions: Dilute the IPQC solutions with Methanol and then with Mobile Phase A, e.g. as follows: • 100 mg In-Process Testing Solution • +450 μL Methanol, mix • +450 μL Mobile Phase A, mix • Mix by vortexing. Samples containing lipids will be slightly hazy. Dilution factor=10×. • Lyophilisates (for Release and Stability Testing): Solubilize the lyophilisate with Ultrapure lab water. Add 3-4 glass beads and vortex vigorously for 1 minute to assure complete homogenization. Dilute the solution with Methanol and subsequently with Mobile Phase A, e.g. as follows: • 100 mg In-Process Testing Solution • +450 μL Methanol, mix • +450 μL Mobile Phase A, mix • Mix by vortexing. The sample preparations will be slightly hazy. Dilution factor=20×.
The dried preparations were solubilized in water for HPLC analysis. T=0 is the day in which the samples were removed from the freeze-dryer. T=1M and T=3M are 1 month and 3 months after T=0, respectively, with the dried preparation having been stored at −20° C.

[2] = system: C57BL/6NCrl mice; assay: IFN-gamma ELISPOT of splenocytes eight days after single vaccination; assay type: in vivo; settings: oil-based composition with 14 neoantigens, single administration, response to the named neoantigen
[3] = After freeze dry T = 1M, stored at −20° C.
[4] = After freeze dry T = 3M, stored at −20° C.

Sequence	Amount from non-validated HPLC assay ([1]; After freeze dry T = 0)	Amount from non-validated HPLC assay [1, 3]	Amount from non-validated HPLC assay [1, 4]	Amount from non-validated HPLC assay ([1]; Before freeze dry)	Improvement of immune response over comparative aqueous composition [2]	Amount from non-validated HPLC assay [1]
CGTAFFINFIAIYHHASRAIPFGTMVA (Mut36) [Mut 36]	0.19 mg/mL	0.25 mg/mL	0.31 mg/mL	0.47 mg/mL	–	–
ECRITSNFVIPSEYWVEEKEEKQKLIQ (Mut45) [Mut 45]	0.44 mg/mL	0.42 mg/mL	0.46 mg/mL	0.47 mg/mL	–	–
EFKHIKAFDRTFANNPGPMVVFATPGM (Mut44) [Mut 44]	0.47 mg/mL	0.44 mg/mL	0.50 mg/mL	0.51 mg/mL	about 3 fold	–
FRRKAFLHWYTGEAMDEMEFTEAESNM [Mut 20]	–	–	–	–	–	0.41 mg/mL and 0.47 mg/mL and 0.54 mg/mL and 0.42 mg/mL
GFSQPLRRLVLHVVSAAQAERLARAEE (Mut50) [Mut 50]	0.42 mg/mL	0.44 mg/mL	0.46 mg/mL	0.42 mg/mL	–	–
IPSGTTILNCFHDVLSGKLSGGSPGVP (Mut29A) [Mut 29a]	0.38 mg/mL	0.34 mg/mL	0.35 mg/mL	0.54 mg/mL	–	–
NIEGIDKLTQLKKPFLVNNKINKIENI (Mut28) [Mut 28]	0.50 mg/mL	0.50 mg/mL	0.51 mg/mL	0.53 mg/mL	–	–
PKPDFSQLQRNILPSNPRVTRFHINWD (Mut22) [Mut 22]	0.51 mg/mL	0.47 mg/mL	0.54 mg/mL	0.54 mg/mL	–	–
PSKPSFQEFVDWENVSPELNSTDQPFL (Mut30) [Mut 30]	0.51 mg/mL	0.51 mg/mL	0.56 mg/mL	0.53 mg/mL	–	–
SFACLRQPSQGPTVGVKGGAAGGGYAQ (Mut29B) [Mut 29b]	0.48 mg/mL	0.44 mg/mL	0.48 mg/mL	0.56 mg/mL	–	–
SHCHWNDLAVIPAGVVHNWDFEPRKVS (Mut48) [Mut 48]	0.38 mg/mL	0.37 mg/mL	0.41 mg/mL	0.47 mg/mL	–	–
STANYNTSHLNNDVWQIFENPVDWKEK (Mut25) [Mut 25]	0.54 mg/mL	0.50 mg/mL	0.56 mg/mL	0.56 mg/mL	about 5 fold	–
TAVITPPTTTTKKARVSTPKPATPSTD (Mut24) [Mut 24]	0.44 mg/mL	0.38 mg/mL	0.37 mg/mL	0.56 mg/mL	–	–
VVDRNPQFLDPVLAYLMKGLCEKPLAS (Mut17) [Mut 17]	0.27 mg/mL	0.23 mg/mL	0.26 mg/mL	0.51 mg/mL	–	–

— US20200230057A1, “Pharmaceutical Compositions, Methods for Preparation using Lipid Vesicle Particles of Defined Size, and Uses Thereof” (IMMUNOVACCINE TECHNOLOGIES INC., priority 2017, published 2020)
